In the experiment the target is human interleukin-1 receptor on cells (MRC-5 human embryonic lung fibroblasts; human blood cells) (human) (UniProt P14778). The experiment can be described thus: cell-based or functional assay.
human interleukin-1 receptor on cells (MRC-5 human embryonic lung fibroblasts; human blood cells) (human), sequence (P14778 18-569): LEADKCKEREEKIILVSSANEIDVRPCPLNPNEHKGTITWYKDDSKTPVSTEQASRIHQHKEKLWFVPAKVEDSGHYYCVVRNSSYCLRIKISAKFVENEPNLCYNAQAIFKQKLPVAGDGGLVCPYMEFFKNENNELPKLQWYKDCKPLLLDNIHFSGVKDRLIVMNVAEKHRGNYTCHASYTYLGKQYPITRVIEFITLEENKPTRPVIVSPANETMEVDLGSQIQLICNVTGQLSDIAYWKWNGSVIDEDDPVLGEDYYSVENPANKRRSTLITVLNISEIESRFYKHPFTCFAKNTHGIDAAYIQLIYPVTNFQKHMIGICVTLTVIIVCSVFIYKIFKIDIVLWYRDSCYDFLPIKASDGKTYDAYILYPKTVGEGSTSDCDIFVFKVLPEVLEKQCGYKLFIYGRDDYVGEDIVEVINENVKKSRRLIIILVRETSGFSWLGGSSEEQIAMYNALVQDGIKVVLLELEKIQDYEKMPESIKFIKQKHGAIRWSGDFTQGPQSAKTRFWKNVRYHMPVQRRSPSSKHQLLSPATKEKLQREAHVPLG
In turn, “Cell Sciences Cat.# CM2028, clone RMHL-1 (antibody)” returned an IC-50 (MRC-5 bioassay) above 100 ng/mL.
As for “R&D Systems Cat.# MAB269, clone 35730 (antibody)”, the IC-50 (MRC-5 bioassay) was above 100 ng/mL.
In the case of “PBL Biomedical Laboratories Cat.# 21808-1, clone RMH1R-1 (antibody)”, the IC-50 (MRC-5 bioassay) was found to be 33 ng/mL.
Turning to “Antigenix Cat.# MC261020, clone R12 (antibody)”, the IC-50 (MRC-5 bioassay) was above 100 ng/mL.
Under “Antigenix Cat.# MC260020, clone R11 (antibody)” stands above 100 ng/mL; under “Biotrend Cat.# 0100-0242, clone 49/20 (antibody)”, above 100 ng/mL; under “BD Pharmingen Cat.# 551388, clone HIL1R-M1 (antibody)”, above 100 ng/mL.
Under “PBL Biomedical Laboratories Cat.# 21809-1, clone RMH1R-2 (antibody)” stands above 100 ng/mL.

For the origin of these results see patent US20090191187A1.
